According to article PMC4452267:

How the values were obtained:
[1] = molecular target: T1, PpsR (Rubrivivax gelatinosus) (UniProt I0HUJ5); experiment: DNase I footprinting; conditions: EMSA: 5 nM probe, 25 mM Tris-HCl pH 8.0, 100 mM NaCl, 2 mM MgCl2, 6% glycerol, 50 ug/ml heparin, room temperature 30 min (5 mM DTT if reduced); footprint: …
T1 sequence: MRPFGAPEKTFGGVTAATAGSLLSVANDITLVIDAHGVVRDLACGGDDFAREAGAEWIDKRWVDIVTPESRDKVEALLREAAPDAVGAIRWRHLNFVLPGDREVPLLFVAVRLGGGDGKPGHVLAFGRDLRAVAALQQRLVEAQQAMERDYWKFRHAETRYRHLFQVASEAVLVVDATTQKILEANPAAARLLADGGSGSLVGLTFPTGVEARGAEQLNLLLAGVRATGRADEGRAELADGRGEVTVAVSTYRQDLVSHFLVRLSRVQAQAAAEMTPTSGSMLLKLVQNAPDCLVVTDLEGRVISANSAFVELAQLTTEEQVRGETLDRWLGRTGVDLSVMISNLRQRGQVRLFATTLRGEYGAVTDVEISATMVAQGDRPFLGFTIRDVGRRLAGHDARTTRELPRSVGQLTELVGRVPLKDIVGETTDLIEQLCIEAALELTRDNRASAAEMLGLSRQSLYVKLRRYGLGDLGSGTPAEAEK

[2] = molecular target: Rubrivivax gelatinosus PpsR (Rubrivivax gelatinosus); experiment: SEC; Superose 12 in 20 mM Tris-HCl (pH 8.0), 500 mM NaCl, 6% glycerol, 0.5 ml/min; molecular weight estimated from a standard curve (Gel Filtration Standard, BioRad)
[3] = system: PpsR C436A (Rubrivivax gelatinosus); experiment: EMSA; conditions: EC50, EMSA: 5 nM probe, 25 mM Tris-HCl pH 8.0, 100 mM NaCl, 2 mM MgCl2, 6% glycerol, 50 ug/ml heparin, room temperature 30 min (5 mM DTT if reduced), footprint: …
[4] = system: PpsR (Rubrivivax gelatinosus); experiment: EMSA; conditions: EC50, EMSA: 5 nM probe, 25 mM Tris-HCl pH 8.0, 100 mM NaCl, 2 mM MgCl2, 6% glycerol, 50 ug/ml heparin, room temperature 30 min (5 mM DTT if reduced), footprint: …

With “ACCAGTTTCCGTGCTCGACCCGCACGTGGGTTGGCTTCTGTAGCCCTCGGATTTCTCCCTACCGACATGTGTAACGCTACGCTGACAGGGTGGGGGCGTCAACATGTCGTGACACCCCCGCAACGCTGAATGTGTCGCGGCTCTGATCTATGACAAATTGCCGGGGTCCGGCGGGCCTCGGGAGCTCT (double strand) [pucB promoter footprint probe]” the binding [1] was “binds”.
In the case of “ATCCTGCTTTCCGGCCGCGCGCGGGGCTGCGGCATCCGACTTCATCAGCATCCGTCGAGCTTGTCCTAAGGCAGGGATTGTGTCAACGACAATTGACGCTCTGTTTTGTCAAGCGCAAGATTCAGCCCCATGGCAAGGCCCGCGTTGTCCGCTGTAGCGGAGTTGCTCAAACCGATCACCTGGTTCCCTCCGAT (double strand) [crtI promoter footprint probe]”, the binding [1] is reported as “binds”.
Substance “Rubrivivax gelatinosus PpsR (natural protein)” has a stoichiometry N [2] of 4.
In the case of crtI promoter EMSA probe, the K half ([3]; oxidized (untreated)) is reported as 146 nM, the K half ([3]; reduced, 5 mM DTT) is reported as 147 nM and the K half ([4]; oxidized (untreated)) is reported as 80.5 nM. The K half ([4]; reduced, 5 mM DTT) was 86.5 nM.
With pucB promoter EMSA probe the K half ([3]; oxidized (untreated)) was 94.1 nM, the K half ([3]; reduced, 5 mM DTT) was 93.3 nM and the K half ([4]; oxidized (untreated)) was 49.8 nM. The K half ([4]; reduced, 5 mM DTT) was 63.3 nM.
